In article PMC9837058, “Oncogenic mutations of PIK3CA lead to increased membrane recruitment driven by reorientation of the ABD, p85 and C-terminus” (Nature Communications, 2023):
[ ]: non-standard residue; d: D form. pY = N[C@@H](Cc1ccc(OP(=O)(O)O)cc1)C(=O)O

What was measured:
Assay in all cases: HDX-MS; purified p110α/p85α complex (9 pmol) incubated with pY peptide (1 µl of 50 µM) or buffer for 15 min on ice; exchange 3 s on ice and 3, 30, 300, 3000 s at 20 °C; 20 mM HEPES pH 7.5, 100 mM NaCl
Conditions in all cases: both partners purified
[1] = target: T1, p110α-p85α complex (wild type, full length) (human, UniProt P42336 1-1068; P27986 1-724)
T1 construct: p85α, human, residues 1-724; Heterodimer of m1 and m2; also called WT p110α/p85α; full-length p110α-p85α; source: Sf9 (baculovirus), co-expressed, purified (Ni-NTA, Strep column, Q column, gel filtration); not shown: His10, N-terminal, cleaved; 2x Strep, N-terminal, cleaved
T1 sequence (P42336 whole entry, chain 1 of 2, the tested form may be a part): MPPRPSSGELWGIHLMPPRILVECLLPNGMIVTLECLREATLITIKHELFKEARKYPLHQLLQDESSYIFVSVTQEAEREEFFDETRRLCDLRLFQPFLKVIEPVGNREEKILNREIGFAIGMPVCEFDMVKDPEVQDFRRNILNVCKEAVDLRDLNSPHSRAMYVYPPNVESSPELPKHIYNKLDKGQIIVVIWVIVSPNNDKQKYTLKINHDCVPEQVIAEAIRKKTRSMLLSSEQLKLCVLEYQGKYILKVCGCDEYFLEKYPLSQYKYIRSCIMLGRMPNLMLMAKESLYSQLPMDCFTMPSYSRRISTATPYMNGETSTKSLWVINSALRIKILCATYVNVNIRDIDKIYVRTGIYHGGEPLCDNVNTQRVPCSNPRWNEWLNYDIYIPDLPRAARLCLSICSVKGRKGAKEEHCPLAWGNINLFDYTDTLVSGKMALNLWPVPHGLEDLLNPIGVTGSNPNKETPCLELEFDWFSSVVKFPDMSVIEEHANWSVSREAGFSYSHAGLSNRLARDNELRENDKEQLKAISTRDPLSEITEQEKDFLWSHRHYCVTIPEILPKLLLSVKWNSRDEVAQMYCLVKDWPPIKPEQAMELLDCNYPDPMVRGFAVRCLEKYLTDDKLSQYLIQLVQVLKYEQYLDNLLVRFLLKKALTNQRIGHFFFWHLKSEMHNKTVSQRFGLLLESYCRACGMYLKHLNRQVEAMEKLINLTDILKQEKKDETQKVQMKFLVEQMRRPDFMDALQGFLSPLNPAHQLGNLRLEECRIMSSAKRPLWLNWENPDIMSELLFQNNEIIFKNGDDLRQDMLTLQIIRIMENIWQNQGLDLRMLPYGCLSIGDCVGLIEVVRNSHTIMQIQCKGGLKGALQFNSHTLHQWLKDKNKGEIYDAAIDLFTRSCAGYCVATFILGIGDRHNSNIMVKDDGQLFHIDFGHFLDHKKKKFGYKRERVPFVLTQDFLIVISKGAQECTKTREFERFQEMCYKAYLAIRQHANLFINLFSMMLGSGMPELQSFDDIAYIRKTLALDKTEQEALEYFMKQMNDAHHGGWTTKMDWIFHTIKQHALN
T1 sequence (P27986 whole entry, chain 2 of 2, the tested form may be a part): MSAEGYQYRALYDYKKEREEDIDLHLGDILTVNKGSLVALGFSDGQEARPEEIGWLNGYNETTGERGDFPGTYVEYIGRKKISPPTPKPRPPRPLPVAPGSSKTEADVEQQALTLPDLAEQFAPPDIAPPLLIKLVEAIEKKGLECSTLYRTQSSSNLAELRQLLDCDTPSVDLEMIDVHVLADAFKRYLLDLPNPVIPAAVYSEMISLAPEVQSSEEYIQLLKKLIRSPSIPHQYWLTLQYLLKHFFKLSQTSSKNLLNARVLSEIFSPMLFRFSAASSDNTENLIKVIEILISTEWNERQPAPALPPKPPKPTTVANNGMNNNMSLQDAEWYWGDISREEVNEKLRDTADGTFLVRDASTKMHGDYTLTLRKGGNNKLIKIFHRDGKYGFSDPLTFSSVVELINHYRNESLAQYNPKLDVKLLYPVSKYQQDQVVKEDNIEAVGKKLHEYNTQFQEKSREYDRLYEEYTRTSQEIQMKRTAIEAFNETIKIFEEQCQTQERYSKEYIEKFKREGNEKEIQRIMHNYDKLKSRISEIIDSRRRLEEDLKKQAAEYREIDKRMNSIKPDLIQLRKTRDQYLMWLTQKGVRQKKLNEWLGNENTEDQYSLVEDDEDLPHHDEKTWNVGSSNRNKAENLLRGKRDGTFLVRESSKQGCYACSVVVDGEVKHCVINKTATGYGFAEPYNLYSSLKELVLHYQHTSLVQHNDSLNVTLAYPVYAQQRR

[2] = target: T2, p110α H1047R-p85α complex (human, UniProt P42336 1-1068; P27986 1-724, H1047R)
T2 construct: p110α, human, full length with the oncogenic mutation H1047R; p85α, human, residues 1-724; Heterodimer of m4 and m2; also called p110α/p85α H1047R; source: Sf9 (baculovirus), co-expressed, purified (Ni-NTA, Strep column, Q column, gel filtration); not shown: His10, N-terminal, cleaved; 2x Strep, N-terminal, cleaved
T2 sequence (P42336 whole entry H1047R, chain 1 of 2, the tested form may be a part): as the sequence (P42336 whole entry, chain 1 of 2, the tested form may be a part) above, with H1047R counted along it
T2 sequence (P27986 whole entry, chain 2 of 2, the tested form may be a part): as the sequence (P27986 whole entry, chain 2 of 2, the tested form may be a part) above

[3] = target: T3, p110α ΔCter (1–1048)-p85α complex (human, UniProt P42336 1-1048; P27986 1-724)
T3 construct: p85α, human, residues 1-724; Heterodimer of m7 and m2; source: Sf9 (baculovirus), co-expressed, purified (Ni-NTA, Strep column, Q column, gel filtration); not shown: His10, N-terminal, cleaved; 2x Strep, N-terminal, cleaved
T3 sequence (P42336 1-1048, stated change not applied, chain 1 of 2): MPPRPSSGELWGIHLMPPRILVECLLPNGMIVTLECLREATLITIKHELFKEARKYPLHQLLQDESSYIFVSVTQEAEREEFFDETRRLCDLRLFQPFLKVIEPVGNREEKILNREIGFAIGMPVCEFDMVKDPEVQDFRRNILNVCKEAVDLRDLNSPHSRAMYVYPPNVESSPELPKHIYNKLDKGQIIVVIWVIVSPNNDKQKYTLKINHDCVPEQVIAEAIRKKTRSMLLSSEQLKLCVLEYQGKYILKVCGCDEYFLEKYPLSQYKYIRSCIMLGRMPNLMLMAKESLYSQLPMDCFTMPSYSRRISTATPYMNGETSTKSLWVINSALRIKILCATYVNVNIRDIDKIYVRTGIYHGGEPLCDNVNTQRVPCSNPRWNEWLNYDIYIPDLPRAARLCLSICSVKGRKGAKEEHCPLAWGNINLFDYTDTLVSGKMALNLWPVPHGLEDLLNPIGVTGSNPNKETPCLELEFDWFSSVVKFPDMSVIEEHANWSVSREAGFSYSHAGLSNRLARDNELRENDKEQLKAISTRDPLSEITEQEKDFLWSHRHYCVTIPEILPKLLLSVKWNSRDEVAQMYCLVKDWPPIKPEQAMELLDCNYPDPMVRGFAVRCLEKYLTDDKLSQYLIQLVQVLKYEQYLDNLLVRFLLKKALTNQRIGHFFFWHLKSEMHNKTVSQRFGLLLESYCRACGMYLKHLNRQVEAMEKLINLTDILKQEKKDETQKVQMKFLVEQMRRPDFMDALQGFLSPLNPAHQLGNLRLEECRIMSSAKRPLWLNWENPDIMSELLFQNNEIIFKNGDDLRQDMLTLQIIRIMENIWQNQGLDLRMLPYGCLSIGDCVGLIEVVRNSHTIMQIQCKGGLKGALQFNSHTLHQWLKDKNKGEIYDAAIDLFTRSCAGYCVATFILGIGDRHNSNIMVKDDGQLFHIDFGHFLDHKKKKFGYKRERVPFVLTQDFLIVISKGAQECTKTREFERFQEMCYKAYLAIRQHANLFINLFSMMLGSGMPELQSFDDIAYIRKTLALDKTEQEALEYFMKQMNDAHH
T3 sequence (P27986 whole entry, stated change not applied, chain 2 of 2, the tested form may be a part): as the sequence (P27986 whole entry, chain 2 of 2, the tested form may be a part) above

Measured: binding result

B1: PDGFR bis-phosphorylated pY peptide (PDGFR residues 735–767, pY740, pY751) (peptide)
peptide: H-ESDGG[pY]MDMSKDESID[pY]VPMLDMKGDIKYADIE-OH
SMILES: CC[C@H](C)[C@H](NC(=O)[C@H](CC(=O)O)NC(=O)[C@H](C)NC(=O)[C@H](Cc1ccc(O)cc1)NC(=O)[C@H](CCCCN)NC(=O)[C@@H](NC(=O)[C@H](CC(=O)O)NC(=O)CNC(=O)[C@H](CCCCN)NC(=O)[C@H](CCSC)NC(=O)[C@H](CC(=O)O)NC(=O)[C@H](CC(C)C)NC(=O)[C@H](CCSC)NC(=O)[C@@H]1CCCN1C(=O)[C@@H](NC(=O)[C@H](Cc1ccc(OP(=O)(O)O)cc1)NC(=O)[C@H](CC(=O)O)NC(=O)[C@@H](NC(=O)[C@H](CO)NC(=O)[C@H](CCC(=O)O)NC(=O)[C@H](CC(=O)O)NC(=O)[C@H](CCCCN)NC(=O)[C@H](CO)NC(=O)[C@H](CCSC)NC(=O)[C@H](CC(=O)O)NC(=O)[C@H](CCSC)NC(=O)[C@H](Cc1ccc(OP(=O)(O)O)cc1)NC(=O)CNC(=O)CNC(=O)[C@H](CC(=O)O)NC(=O)[C@H](CO)NC(=O)[C@@H](N)CCC(=O)O)[C@@H](C)CC)C(C)C)[C@@H](C)CC)C(=O)N[C@@H](CCC(=O)O)C(=O)O
notes: PDGFR residues 735-767; human has V where this peptide has I at two places; also called phosphopeptide; source: synthetic peptide; bought: New England Peptide
binds: all assays above
